Results on 1 protein are retold here after publication PMC10619557, “Crystal Structures of 6-Phosphogluconate Dehydrogenase from Corynebacterium glutamicum” (Journal of Microbiology and Biotechnology, 2023).

Substrate in data set [1]: O=C(O)[C@H](O)[C@@H](O)[C@H](O)[C@H](O)COP(=O)(O)O
Description: purified protein. In kind it is biochemical, Corynebacterium glutamicum. The settings on record: 6PG 0.1-5 mM, 2 mM NADP, 40 mM Tris-HCl pH 8.0, 20 °C.

Substrate in data set [2]: NC(=O)c1ccc[n+]([C@@H]2O[C@H](COP(=O)(O)OP(=O)(O)OC[C@H]3O[C@@H](n4cnc5c(N)ncnc54)[C@H](OP(=O)(O)O)[C@@H]3O)[C@@H](O)[C@H]2O)c1
The data set is described as follows: purified protein. In kind it is biochemical, Corynebacterium glutamicum. The settings on record: NADP 0.01-2 mM, 5 mM 6PG, 40 mM Tris-HCl pH 8.0, 20 °C, varied: cofactor.

By Km is commonly meant the concentration of substrate that gives half-maximal velocity. What is called kcat is the number of substrate molecules converted per active site and unit of time at saturation. The term kcat/Km denotes the second-order rate constant that governs catalysis at low substrate concentration.

B1: Cg6PGD (Corynebacterium glutamicum ATCC 13032) (protein)
chain: MTNGDNLAQIGVVGLAVMGSNLARNFARNGNTVAVYNRSTDKTDKLIADHGSEGNFIPSATVEEFVASLEKPRRAIIMVQAGNATDAVINQLADAMDEGDIIIDGGNALYTDTIRREKEISARGLHFVGAGISGGEEGALNGPSIMPGGPAKSYESLGPLLESIAANVDGTPCVTHIGPDGAGHFVKMVHNGIEYADMQVIGEAYHLLRYAAGMQPAEIAEVFKEWNAGDLDSYLIEITAEVLSQVDAETGKPLIDVIVDAAGQKGTGRWTVKAALDLGIATTGIGEAVFARALSGATSQRAAAQGNLPAGVLTDLEALGVDKAQFVEDVRRALYASKLVAYAQGFDEIKAGSDENNWDVDPRDLATIWRGGCIIRAKFLNRIVEAYDANAELESLLLDPYFKSELGDLIDSWRRVIVTATQLGLPIPVFASSLSYYDSLRAERLPAALIQGQRDFFGAHTYKRIDKDGSFHTEWSGDRSEVEA
notes: full length, 484 residues (Met1-Ala484), C-terminal His6 (pET-30a), E. coli BL21(DE3)-T1R
In the case of B1, in data set [1], the Km is 340.8 ± 30 µM, the kcat worked out at 19 ± 0.452 s⁻¹ and the kcat/Km was 55700 M⁻¹ s⁻¹. Besides, in data set [2], the Km turned out to be 162.8 ± 9.5 µM, the kcat is 17.1 ± 0.282 s⁻¹ and the kcat/Km turned out to be 105000 M⁻¹ s⁻¹.
